# From patent publication US20080299108A1, “Peptides for Diagnostic and Therapeutic Methods for Celiac Sprue” (priority 2005, published 2008)
# Entries after “also recorded” stand apart in the source; their conditions may differ. Where no end group is shown, it is not given here.
# What was measured:
# HLA-DQ2 = target: T1, HLA-DQ2 (Homo sapiens, UniProt P01909+P01920, A45G/A70V/D89A/E106A/E77G/E98D/H199R/L107V/N214S/P84L/P87L/T103K/T109R/T172A/T60S/V78E/V99I/Y58L/Y62S/Y69I/Y79F); experiment: Peptide exchange assay (HPSEC, fluorescein-conjugated peptides); type: binding; conditions: for DQ2 binding affinity: pH 5 and pH 7; for binding maximum (DQ2 bound peptide as percentage of total peptide): pH 5.5, 37° C., 45 h, 4.7 μM DQ2, 0.18 μM peptide; for maximum occupancy (DQ2 bound peptide): pH 7.3, 45 h
# T1 construct: the soluble extracellular domains of the DQ2 α and β chains were co-expressed; Fos leucine zipper, joined through a factor Xa site (C); gliadin peptide […]; Jun leucine zipper, joined through a factor Xa site (C); made in house; host or cells: High Five insect cells, pAcAB3 baculovirus
# Method: FIG. 8. Equilibrium occupancy of individual peptides listed in Table 1 in the DQ2 binding pocket, as measured by peptide exchange assays. Measurements were made at (A) pH 5.5 and (B) pH 7.3. 4.7 μM DQ2 was mixed with 0.18 μM fluorescein-conjugated peptide at 37° C. for 45 h, and the abundance of DQ2 bound peptide was calculated as a percentage of total peptide.
# DQ2 expression and purification. Soluble DQ2 molecules were expressed and purified as previously described. Briefly, the soluble extracellular domains of the DQ2 α and β chains were co-expressed in High Five insect cells using a pAcAB3 baculovirus expression system, and were affinity-purified using the anti-DQ2 mAb 2.12.E11. […] A complementary Fos/Jun leucine zipper pair was engineered at the C-terminal ends of α and β chains, respectively, with intervening factor Xa proteolysis sites, to increase the heterodimer stability during protein expression.
# The concentration of HLA-DQ2 was determined by UV spectrophotometry at 280 nm using the absorption coefficient factor 75,700 cm^−1M^−1 as calculated from the contents of tyrosine, tryptophan and cystine in the DQ2 sequence (22). Prior to use in binding experiments with exogenous ligands, the DQ2-ligand fusion protein was first treated with ˜2% w/w thrombin in pH 7.3 PBS at 0° C. for 2 h.
# Peptide exchange assay. For peptide exchange experiments, the DQ2 heterodimer purified as described above was incubated with fluorescein-conjugated ligands in a 25:1 ratio (i.e. 4.7 μM DQ2 with 0.18 μM fluorescent peptide). Incubations were performed at 37° C. in a 1:1 mixture of PBS buffer (10 mM Pi, 150 mM NaCl, pH 7.3, supplemented with 0.02% NaN3) and McIlvaine's citrate-phosphate buffers (pH 5 or pH 7) such that the final pH was either 5.5 or 7.3, respectively. Peptide binding was measured by high performance size exclusion chromatography (HPSEC) (17). 1 μl of reaction mixture was diluted into 14 μl PBS. 12.5 μl of the diluted material was injected onto a BioSep 3000 size exclusion column (Phenomenex), and eluted with PBS buffer at 1 ml/min. The DQ2-peptide complex eluted at 8.5 min, with free peptides emerging […] later. The fluorescence signal was recorded using an in-line Shimadzu RA35 fluorescent detector with excitation wavelength set at 495 nm and emission detection set at 520 nm. Peak areas corresponding to the DQ2-peptide complex and the free peptide were used to calculate the fractional yield of the DQ2-fluoresceinated peptide complex.
# [1] = tested on: rat small intestinal brush-border membrane (BBM) enzymes; experiment: Rat BBM digestion of peptides from α2-gliadin (12 ng/μl BBM protein); type: in vitro ADME
# Method: BBM fractions were prepared from rat small intestinal mucosa.
# [2] = tested on: clonal T cell line that recognizes the αII epitope; experiment: T cell proliferation, clonal T cell line (FIG. 9B); type: cell-based, human; conditions: paraformaldehyde-fixed DQ2 antigen presenting cells
# Method: (§1) FIG. 9A-9B. […] Paraformaldehyde-fixed DQ2 cells were used as antigen presenting cells. (A) Proliferation of a polyclonal T cell line that recognizes all α epitopes. (B) Proliferation of a clonal T cell line that recognizes the αII epitope (peptide 3).
# (§2) T cell proliferation assays. The DQ2 homozygous […] cell line (LCL) VAVY cells were irradiated with 12,000 rads of γ-irradiation or fixed with 1% paraformaldehyde for 10 minutes as indicated, and incubated with the appropriate peptides overnight in media containing 10% fetal bovine serum, 2% human serum, penicillin and streptomycin at a cell density of 2×10^6 cells/ml in 96-well plates. The next day, the volume was doubled to yield a cell density of 1×10^6 cells/ml, 50 μl of which was placed into a U-bottom 96-well plate. An equal volume of T-cells (50 μl of 1×10^6 cells/ml) was added to each well, and cells were incubated at 37° C. and 5% CO2 for 48 h, at which point 0.5 μCi/well of [methyl-^3H] thymidine (Amersham, TRK120) was added. […] After thawing, incorporated thymidine was collected on a filter mat (Wallac, 1205-401) using a Tomtec cell harvester, and counted using a Wallac 1205 Betaplate liquid scintillation counter.
# (§3) To test this hypothesis, we synthesized the 20-mer peptide 5, and quantitatively compared its ability to bind DQ2 in peptide exchange and dissociation assays. […]
# [3] = tested on: polyclonal T cell line that recognizes all α epitopes; experiment: T cell proliferation, polyclonal T cell line (FIG. 9A); type: cell-based, human; conditions: paraformaldehyde-fixed DQ2 antigen presenting cells
# Method: as §1, §2, §3
# [4] = tested on: rat brush border membrane (BBM) protein; experiment: Rat brush border membrane (BBM) digestion of gliadin peptides, LC-MS; type: in vitro ADME; conditions: for apparent half time of disappearance of the parent peptide (t1/2): 100 μM peptide, 37° C.
# Method: To dissect this complex process, liquid chromatography coupled mass spectroscopy analysis (LC-MS-MS) was utilized to investigate the pathways and associated kinetics of hydrolysis of immunodominant gliadin peptides treated with rat BBM preparations. Because the rodent is an excellent small animal model for human intestinal structure and function, rat BBM was chosen as a suitable model system for these studies.
# BBM fractions were prepared from rat small intestinal mucosa as described by Ahnen et al. (1982) J. Biol. Chem. 257, 12129-35. […] No proline aminopeptidase (EC 3.4.11.5) or prolyl endopeptidase activity (PEP, EC 3.4.21.26) activity was detectable (<5 μU/μg). Alkaline phosphatase and sucrase were used as control BBM enzymes with activities of 66 μU/μg and 350 μU/μg, respectively.
# BBM fractions were partially purified from the small intestinal mucosa of adult female rats maintained on an ad libitum diet of wheat-based standard rodent chow. Total protein content was determined by a modified method of Lowry with BSA as a standard. Alkaline phosphatase activity was determined with nitrophenyl phosphate. Sucrase activity was measured using a coupled glucose assay.
# Proteolysis with the BBM preparation was investigated using the peptide (SEQ ID NO:1) (SEQ ID NO:1) […], a product of chymotryptic digestion of α-9 gliadin (Arentz-Hansen et al. (2000) J. Exp. Med. 191, 603-12). […] It was subjected to BBM digestion, followed by LC-MS-MS analysis. A standard 50 μl digestion mixture contained 100 μM of synthetic peptide, 10 μM tryptophan and Cbz-tryptophan as internal standards, and resuspended BBM preparations with a final protein content of 27 ng/μl and exogenous proteins, as indicated, in phosphate buffered saline. After incubation at 37° C. for the indicated time, the enzymes were inactivated by heating to 95° C. for 3 minutes. The reaction mixtures were analyzed by LC-MS (SpectraSystem, ThermoFinnigan) using a C18 reversed phase column (Vydac 218TP5215, 2.1×150 mm) with water:acetonitrile:formic acid (0.1%):trifluoroacetic acid (0.025%) as the mobile phase (flow: 0.2 ml/min) and a gradient of 10% acetonitrile for 3 minutes, 10-20% for 3 minutes, 20-25% for 21 minutes followed by a 95% wash. Peptide fragments in the mass range of m/z=300-2000 were detected by electrospray ionization mass spectroscopy using a LCQ ion trap, and their identities were confirmed by MSMS fragmentation patterns.
# rat jejunum = experiment: In vivo intestinal perfusion in intact adult rats; conditions: 15-20 cm segment of jejunum, residence time 20 min
# [5] = target: 33-mer α2-gliadin peptide (non-deamidated), residues 57-89
# [6] = target: soluble HLA-DQ2 heterodimer (extracellular domains of the DQ2 α and β chains with Fos/Jun leucine zippers), thrombin-treated (human); experiment: peptide exchange kinetics, HPSEC, pH 7.3
# [7] = target: soluble HLA-DQ2 heterodimer (extracellular domains of the DQ2 α and β chains with Fos/Jun leucine zippers), thrombin-treated (human); experiment: peptide exchange kinetics, HPSEC
# [8] = tested on: pepsin, trypsin, chymotrypsin, elastase and carboxypeptidase
molecule,measurement,setting,value
"LQLQPFPQPELPYPQPEKPY [Peptide 18, L18K analogue of 20-mer peptide 5]",DQ2 binding affinity,HLA-DQ2,bound poorly to DQ2
WQIPEQSR,half-life of disappearance,[1],~60 min
PFPQPELPY [Peptide 2],binding maximum (DQ2 bound peptide as percentage of total peptide),HLA-DQ2,less than 1%
same,maximum occupancy (DQ2 bound peptide),HLA-DQ2,undetectable
LQLQPFPQPQLPYPQPELPYPQPELPYPQPQPF [Peptide 16],DQ2 binding affinity,HLA-DQ2,approximates the 33-mer binding characteristics
"LQLQPFPQPEKPYPQPELPY [Peptide 17, L11K analogue of 20-mer peptide 5]",DQ2 binding affinity,HLA-DQ2,bound poorly to DQ2
PQPELPYPQ [Peptide 3],binding maximum (DQ2 bound peptide as percentage of total peptide),HLA-DQ2,7%
LQLQPFPQPELPYPQPELPYPQPELPYPQPQPF [Peptide 1],T cell stimulatory capacity,[2],comparable T cell stimulatory capacity that exceeds that of peptide 3
same,time to half maximal DQ2 occupancy,HLA-DQ2; exchange kinetics,~8 h
same,maximum occupancy (DQ2 bound peptide),HLA-DQ2,28%
same,T cell stimulatory characteristics,[3],substantially more potent T cell antigens than the minimal αII epitope peptide 3
LQLQPFPQPELPYPQPQLPYPQPQLPYPQPQPF [Peptide 11],DQ2 binding affinity,HLA-DQ2,higher affinity for DQ2 than either Q17E (12) or Q24E (13)
RRLIEDNEYTARG,clearance of digestive intermediates,[4]; 27 ng/μl rat BBM protein,cleared completely within one hour
same,apparent half time of disappearance of the parent peptide (t1/2),[4]; 27 ng/μl rat BBM protein,10 min
LQLQPFPQPELPYPQPQLPYPQPELPYPQPQPF [Peptide 15],DQ2 binding affinity,HLA-DQ2,significantly enhances affinity relative to Q10E (11)
PQPQLPYPQPQLP,stability toward BBM digestion,[4]; 27 ng/μl rat BBM protein,highly resistant to further digestion
PQPELPYPQPELPY [Peptide 6],DQ2 binding affinity,HLA-DQ2,considerably lower affinity for DQ2 than peptide 5
LQLQPFPQPELPYPQPELPY [Peptide 5],T cell stimulatory capacity,[2],comparable T cell stimulatory capacity that exceeds that of peptide 3
same,DQ2 binding affinity,HLA-DQ2,comparable to the 33-mer peptide 1 in all in vitro assays; also recorded: binds to DQ2 equally well as the 33-mer peptide 1
same,T cell stimulatory characteristics,[3],substantially more potent T cell antigens than the minimal αII epitope peptide 3
QLQPFPQPQLPY,apparent half time of disappearance of the parent peptide (t1/2),[4]; 27 ng/μl rat BBM protein,35 min
same,digestion in the presence of exogenous DPP IV,[4]; BBM plus 6-fold excess activity of exogenous fungal DPP IV,complete digestion was observed within four hours
same,fraction of peptide proteolyzed in the perfusion experiment,rat jejunum,> 90%
LQLQPFPQPELPYPQPELPYPQPQLPYPQPQPF [Peptide 14],DQ2 binding affinity,HLA-DQ2,significantly enhances affinity relative to Q10E (11)
human tissue transglutaminase (tTGase) (protein) AEELVLERCDLELETNGRDHHTADLCREKLVVRRGQPFWLTLHFEGRNYEASVDSLTFSVVTGPAPSQEAGTKARFPLRDAVEEGDWTATVVDQQDCTLSLQLTTPANAPIGLYRLSLEASTGYQGSSFVLGHFILLFNAWCPADAVYLDSEEERQEYVLTQQGFIYQGSAKFIKNIPWNFGQFEDGILDICLILLDVNPKFLKNAGRDCSRRSSPVYVGRVVSGMVNCNDDQGVLLGRWDNNYGDGVSPMSWIGSVDILRRWKNHGCQRVKYGQCWVFAAVACTVLRCLGIPTRVVTNYNSAHDQNSNLLIEYFRNEFGEIQGDKSEMIWNFHCWVESWMTRPDLQPGYEGWQALDPTPQEKSEGTYCCGPVPVRAIKEGDLSTKYDAPFVFAEVNADVVDWIQQDDGSVHKSINRSLIVGLKISTKSVGRDEREDITHTYKYPEGSSEEREAFTRANHLNKLAEKEETGMAMRIRVGQSMNMGSDFDVFAHITNNTAEEYVCRLLLCARTVSYNGILGPECGTKYLLNLNLEPFSEKSVPLCILYEKYRDCLTESNLIKVRALLVEPVINSYLLAERDLYLENPEIKIRILGEPKQKRKLVAEVSLQNPLPVALEGCTFTVEGAGLTEEQKTVEIPDPVEAGEEVKVRMDLLPLHMGLHKLVVNFESDKLKAVKGFRNVIIGPA,kcat/KM (deamidation by tTGase),[5],kcat/KM=440 min-1 mM-1
"{5(6)‑carboxyfluorescein}-LQLQPFPQPELPYPQPELPYPQPELPYPQPQPF [33-mer peptide 1 (deamidated 33-mer from α2-gliadin), fluorescein-conjugated]",maximum occupancy,[6],28%
same,time to half maximal DQ2 occupancy,[7],8 h
"myoglobin: another common dietary protein (protein, UniProt P02144 2-154, looked up) Myoglobin: GLSDGEWQLVLNVWGKVEADIPGHGQEVLIRLFKGHPETLEKFDKFKHLKSEDEMKASEDLKKHGATVLTALGGILKKKGHHEAEIKPLAQSHATKHKIPVKYLEFISECIIQVLQSKHPGDFGADAQGAMNKALELFRKDMASNYKELGFQG",stability toward gastric and pancreatic proteases,[8],rapidly broken down into much smaller products
